Test results reported in PMC10716779.

Target: Full-length rat neuronal nitric oxide synthase (nNOS) (rat) (UniProt P29476)
Sequence (P29476 whole entry): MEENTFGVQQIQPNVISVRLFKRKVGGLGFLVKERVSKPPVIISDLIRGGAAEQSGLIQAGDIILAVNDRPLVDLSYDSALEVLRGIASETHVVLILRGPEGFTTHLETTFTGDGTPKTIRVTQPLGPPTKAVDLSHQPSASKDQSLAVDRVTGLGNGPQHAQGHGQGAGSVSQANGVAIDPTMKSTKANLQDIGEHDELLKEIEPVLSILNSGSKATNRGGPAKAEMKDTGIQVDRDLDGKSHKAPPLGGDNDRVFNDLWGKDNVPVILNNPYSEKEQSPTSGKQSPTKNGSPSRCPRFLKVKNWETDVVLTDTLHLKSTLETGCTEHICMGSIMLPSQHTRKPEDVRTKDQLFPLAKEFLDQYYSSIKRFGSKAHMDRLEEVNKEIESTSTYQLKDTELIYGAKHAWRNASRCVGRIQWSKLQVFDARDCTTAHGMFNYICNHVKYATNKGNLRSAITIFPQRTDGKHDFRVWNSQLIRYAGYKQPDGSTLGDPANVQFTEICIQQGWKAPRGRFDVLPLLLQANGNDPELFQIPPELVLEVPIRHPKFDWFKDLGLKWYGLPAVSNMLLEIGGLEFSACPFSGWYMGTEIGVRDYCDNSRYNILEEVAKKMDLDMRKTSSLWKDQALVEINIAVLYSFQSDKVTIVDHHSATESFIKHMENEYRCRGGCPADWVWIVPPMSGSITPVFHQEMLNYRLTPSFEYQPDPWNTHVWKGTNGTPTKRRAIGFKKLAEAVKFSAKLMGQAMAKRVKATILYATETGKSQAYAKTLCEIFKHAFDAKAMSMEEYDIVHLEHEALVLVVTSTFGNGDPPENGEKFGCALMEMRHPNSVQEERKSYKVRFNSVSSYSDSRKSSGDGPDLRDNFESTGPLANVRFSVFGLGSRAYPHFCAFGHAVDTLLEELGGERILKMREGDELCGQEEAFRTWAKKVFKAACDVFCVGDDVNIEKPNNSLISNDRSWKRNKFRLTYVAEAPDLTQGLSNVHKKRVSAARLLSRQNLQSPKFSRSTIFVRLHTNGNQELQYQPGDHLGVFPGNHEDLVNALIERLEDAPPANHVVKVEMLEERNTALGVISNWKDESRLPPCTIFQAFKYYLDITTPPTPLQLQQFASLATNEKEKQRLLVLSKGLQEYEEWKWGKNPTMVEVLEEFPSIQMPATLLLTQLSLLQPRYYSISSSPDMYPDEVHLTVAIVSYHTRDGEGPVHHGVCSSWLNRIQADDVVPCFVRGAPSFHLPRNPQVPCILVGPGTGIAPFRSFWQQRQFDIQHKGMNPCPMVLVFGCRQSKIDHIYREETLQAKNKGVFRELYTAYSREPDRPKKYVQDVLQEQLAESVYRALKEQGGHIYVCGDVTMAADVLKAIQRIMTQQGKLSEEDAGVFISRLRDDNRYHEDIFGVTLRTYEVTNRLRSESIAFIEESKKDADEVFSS

Human calmodulin (CaM), N-terminal His6-TEV tag removed (from UniProt P0DP23 1-149) (natural protein)
nNOS activity (NO synthesis, oxyhemoglobin assay) of 2.0 μM nNOS against increasing CaM concentration; CaM concentration at maximal activation: 2.4 µM
